{"source": "paper PMC6008586", "about": "“Analysis of transition state mimicry by tight binding aminothiazoline inhibitors provides insight into catalysis by human O-GlcNAcase” (Chemical Science, 2016)", "origin": "cited, not measured here", "molecular_target": "Asp174 (UniProt position 174, FALLFDDIDHN)", "assay": "kinetics", "conditions": "the article refers the ionisation state to the resting enzyme; free-enzyme versus enzyme-substrate complex is not specified", "data": [{"substance": "O-GlcNAcase (OGA, protein O-GlcNAc hydrolase, GH84) (Homo sapiens)", "values": [{"measurement": "pKa", "value": 5.2}]}]}
